The values below come from PMC8943062.

Experiment [1] concerns the target open-gate E71V KcsA channel (chymotrypsin-truncated, TM1 and TM2 cross-linked by C28-C118 disulfides) (UniProt P0A334). As to the kind of experiment: crystal structure; KcsA-Fab complex (formed from purified channel in DM and Fab, excess Fab removed by SEC) concentrated to 15 mg/ml, crystallised in 50 mM magnesium acetate, 50 mM sodium acetate pH 5.5, 25% PEG 400 at 20 °C; one monomer in the asymmetric unit. A general note: Size exclusion chromatography separates by hydrodynamic size, large species first.

The target of experiment [2] is closed-gate E71V KcsA channel (chymotrypsin-truncated) (UniProt P0A334). The description is as above.

Usually stoichiometry N stands for a count of units in the complex or per binding partner. The substance “open-gate E71V KcsA channel (chymotrypsin-truncated, TM1 and TM2 cross-linked by C28-C118 disulfides) (from UniProt P0A334 1-160) (natural protein)” displayed a stoichiometry N in experiment [1] of 4.
Take “closed-gate E71V KcsA channel (chymotrypsin-truncated) (from UniProt P0A334 1-160) (natural protein)”: the stoichiometry N in experiment [2] worked out at 4.
